Target: T1, Cas12i-30 (N295R,N260R)
T1 chain: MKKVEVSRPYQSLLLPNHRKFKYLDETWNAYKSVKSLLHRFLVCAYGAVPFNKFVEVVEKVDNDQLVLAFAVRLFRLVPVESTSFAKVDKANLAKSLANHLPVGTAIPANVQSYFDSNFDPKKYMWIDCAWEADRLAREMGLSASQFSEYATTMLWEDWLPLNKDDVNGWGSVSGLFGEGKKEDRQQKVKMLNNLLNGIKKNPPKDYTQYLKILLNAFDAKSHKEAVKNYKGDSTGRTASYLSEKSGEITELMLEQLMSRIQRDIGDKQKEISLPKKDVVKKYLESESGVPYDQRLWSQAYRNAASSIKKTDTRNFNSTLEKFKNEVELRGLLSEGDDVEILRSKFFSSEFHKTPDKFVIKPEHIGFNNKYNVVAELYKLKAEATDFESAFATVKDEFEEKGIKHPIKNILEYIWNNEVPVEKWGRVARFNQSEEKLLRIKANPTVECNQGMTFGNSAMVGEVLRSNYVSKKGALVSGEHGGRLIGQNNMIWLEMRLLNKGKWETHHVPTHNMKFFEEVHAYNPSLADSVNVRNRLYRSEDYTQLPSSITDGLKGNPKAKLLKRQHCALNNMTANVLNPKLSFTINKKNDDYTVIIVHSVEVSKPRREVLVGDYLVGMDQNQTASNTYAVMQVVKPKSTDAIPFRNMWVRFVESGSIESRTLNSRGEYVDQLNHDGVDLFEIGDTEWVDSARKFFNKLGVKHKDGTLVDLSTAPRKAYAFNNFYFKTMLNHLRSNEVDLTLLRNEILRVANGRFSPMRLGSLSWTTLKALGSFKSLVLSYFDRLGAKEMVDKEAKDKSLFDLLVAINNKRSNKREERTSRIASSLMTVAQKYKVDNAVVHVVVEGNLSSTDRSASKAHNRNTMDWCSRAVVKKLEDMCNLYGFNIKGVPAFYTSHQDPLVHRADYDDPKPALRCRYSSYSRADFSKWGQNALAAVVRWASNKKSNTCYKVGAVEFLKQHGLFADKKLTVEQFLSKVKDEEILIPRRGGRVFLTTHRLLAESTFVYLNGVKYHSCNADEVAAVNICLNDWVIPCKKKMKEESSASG
Experiment: cell_activity; 293T indels, reference; editing >10%
Method: Plating: The 293T cell line was plated when the confluence reached 70-80%, and the number of cells seeded in a 24-well plate was 5*10\hat{ }5 cells/well.
Transfection: After 12-14 hours of plating, transfection was performed. 100 μl of Opti-MEM, 1.5 μl of PEI (Yisheng Bio, Polyethylenimine Linear (PEI) MW25000), 250 ng of the mutant clone plasmid from Example 2, and 250 ng of gRNA plasmid for targeting endogenous genes were added to each well of a 24-well plate. The mixture was incubated at room temperature for 20 minutes and then added to 293T cells for transfection. After transfection overnight, the medium was replaced with fresh medium and cultured for the next period.
DNA extraction, PCR amplification, and Sanger sequencing: After culturing for 72 hours, cells were washed with PBS, and then 100 μl of cell lysis buffer (Viagen, DirectPCR® Lysis Reagent (Cell)) was added for lysis to obtain a lysate containing genomic DNA. The genomic DNA was amplified in the region near the target sequence, and the PCR product was sent to a sequencing company for Sanger sequencing.

B1: gRNA-HBB ; HBB target (ssRNA ; dsDNA)
RNA: AGAGAAUGUGUGCAUAGUCACACUAUGCAGAAAUAUUGCUAUUGCCU
DNA 1: TATGCAGAAATATTGCTATTGCCT
DNA 2: AGGCAATAGCAATATTTCTGCATA
B1 was tested, and the “relative indel editing efficiency” value was 1 fold of Cas12i-30.

From patent US20260250651, “CAS12 PROTEINS AND USES THEREOF” (GUANGZHOU REFORGENE MEDICINE CO., LTD., published 2026)
